Values of other authors as cited in PMC3229669.

Target: histone H4 N-terminal tail (UniProt P62805)

Spt16 NT domain, sequence (O94267 1-442): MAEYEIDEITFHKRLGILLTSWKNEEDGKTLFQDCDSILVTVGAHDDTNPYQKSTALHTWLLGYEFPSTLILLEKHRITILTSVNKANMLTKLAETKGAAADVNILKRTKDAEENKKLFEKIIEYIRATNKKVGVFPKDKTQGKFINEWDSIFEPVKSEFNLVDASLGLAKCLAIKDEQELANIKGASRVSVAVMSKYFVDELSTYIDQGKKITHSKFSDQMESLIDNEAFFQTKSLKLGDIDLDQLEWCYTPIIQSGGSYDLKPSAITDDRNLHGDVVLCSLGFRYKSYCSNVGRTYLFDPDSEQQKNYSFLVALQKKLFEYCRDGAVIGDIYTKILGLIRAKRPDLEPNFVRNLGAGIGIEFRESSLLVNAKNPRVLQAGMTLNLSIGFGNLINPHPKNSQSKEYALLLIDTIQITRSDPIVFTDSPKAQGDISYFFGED

Spt16 NT domain (from UniProt O94267)
Kd: 3000 nM
